From patent US20140120098A1 (DANSK UNIVERSITET, published 2014)

Biological target: T1, acetylated BSA (bovine, UniProt P02769 25-607, acetylated (N-acetyl groups; positions not stated); 125I-labelled or Alexa Fluor 488 C5 maleimide-labelled in the uptake experiments)
T1 construct: also called NAc-BSA; N-acetyl bovine serum albumin
Assay: ELISA, plates coated with acetylated BSA, 5 mM CaCl2

T1 sequence (P02769 25-607 limits assumed): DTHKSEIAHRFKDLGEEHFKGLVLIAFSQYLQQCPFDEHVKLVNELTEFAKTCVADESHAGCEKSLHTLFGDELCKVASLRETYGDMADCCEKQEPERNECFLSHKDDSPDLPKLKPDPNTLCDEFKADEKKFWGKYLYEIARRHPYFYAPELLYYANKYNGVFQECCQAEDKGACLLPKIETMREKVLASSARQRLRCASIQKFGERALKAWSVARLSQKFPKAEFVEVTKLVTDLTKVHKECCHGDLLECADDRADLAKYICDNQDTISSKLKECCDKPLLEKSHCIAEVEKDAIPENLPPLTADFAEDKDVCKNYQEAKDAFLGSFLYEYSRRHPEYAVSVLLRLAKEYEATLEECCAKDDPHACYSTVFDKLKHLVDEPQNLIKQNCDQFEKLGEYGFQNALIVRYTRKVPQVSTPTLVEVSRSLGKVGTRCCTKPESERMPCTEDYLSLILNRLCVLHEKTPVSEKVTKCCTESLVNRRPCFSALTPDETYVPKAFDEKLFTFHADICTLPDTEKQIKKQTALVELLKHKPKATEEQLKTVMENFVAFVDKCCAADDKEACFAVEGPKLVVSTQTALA

| binding result | Binder |
| --- | --- |
| no binding | FIBCD1 FReD A432V (receptor) ATGSRPRDCLDVLLSGQQDDGVYSVFPTHYPAGFQVYCDMRTDGGGWTVFQRREDGSVNFFRGWDAYRDGFGRLTGEHWLGLKRIHALTTQAAYELHVDLEDFENGTAYARYGSFGVGLFSVDPEEDGYPLTVADYSGTAGDSLLKHSGMRFTTKDRDSDHSENNCAAFYRGAWWYRNCHTSNLNGQYLRGAHASYVDGVEWSSWTGWQYSLKFSEMKIRPVREDR |
| no binding | FIBCD1 FReD H415G (receptor) ATGSRPRDCLDVLLSGQQDDGVYSVFPTHYPAGFQVYCDMRTDGGGWTVFQRREDGSVNFFRGWDAYRDGFGRLTGEHWLGLKRIHALTTQAAYELHVDLEDFENGTAYARYGSFGVGLFSVDPEEDGYPLTVADYSGTAGDSLLKHSGMRFTTKDRDSDHSENNCAAFYRGAWWYRNCGTSNLNGQYLRGAHASYADGVEWSSWTGWQYSLKFSEMKIRPVREDR |
